Reference: the supplement of paper PMC6757056
± gives the standard deviation of the averaged measurements.

B1: library; a variant is named by its letters at N, in order (parent)
chain: GCUGUCACCGAGAAACUGUGAAGUAUAUCUUAAACCUGGGCACUUAAAAGAUAUAUGGAGUUAGUAGUGCAACCUGCUCGGUCUGAUGAGUCCNNNNNNGGACGAAACAGC

Columns and labels:
cyclic di-GMP [1] = variants of: B1; test: normalized RNA/DNA level without ligand (relative to sTRSVctl = 100) (log10 (% of sTRSVctl)); HEK293T; ligand: cyclic di-GMP (c-di-GMP-II aptamer); higher = less ribozyme self-cleavage, higher mRNA level; details: reporter: mCherry (pCS4076), ligand present: no
Outline: (§1)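 HEK293T cells received ligand, where used, 1 h before being transfected with 4 µg per 6-well well of library plasmids encoding reporter-linked ribozyme switches. After 72 h, RNA was extracted with EDTA and sequenced. RNA level was derived from RNA reads per DNA read, normalized to a spiked-in non-cleaving sequence or the top sequences, then scaled and log-transformed. Values were ×100 then log10, the top set was 25 sequences, and the minimum was 100 DNA reads.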

cyclic di-GMP [2] = variants of: B1; test: normalized RNA/DNA level with ligand (relative to sTRSVctl = 100) (log10 (% of sTRSVctl)); HEK293T; ligand: cyclic di-GMP (c-di-GMP-II aptamer); ligand concentration (+) RNA-Seq: 1 mM; higher = less ribozyme self-cleavage, higher mRNA level; details: reporter: mCherry (pCS4076), ligand present: yes
Outline: as §1

Row | Variant | normalized RNA/DNA level without ligand (log10) (cyclic di-GMP [1]) | normalized RNA/DNA level with ligand (log10) (cyclic di-GMP [2])
1 | GCUGUCACCGAGAAACUGUGAAGUAUAUCUUAAACCUGGGCACUUAAAAGAUAUAUGGAGUUAGUAGUGCAACCUGCUCGGUCUGAUGAGUCCUUCGAAGGACGAAACAGC [UUCGAA] | 1.6 ± 0.041 | 1.82 ± 0.043
2 | GCUGUCACCGAGAAACUGUGAAGUAUAUCUUAAACCUGGGCACUUAAAAGAUAUAUGGAGUUAGUAGUGCAACCUGCUCGGUCUGAUGAGUCCCGCACGGGACGAAACAGC [CGCACG] | 1.75 ± 0.038 | 1.85 ± 0.08
3 | GCUGUCACCGAGAAACUGUGAAGUAUAUCUUAAACCUGGGCACUUAAAAGAUAUAUGGAGUUAGUAGUGCAACCUGCUCGGUCUGAUGAGUCCGAAUCAGGACGAAACAGC [GAAUCA] | 1.638 ± 0.0066 | 1.82 ± 0.1
4 | GCUGUCACCGAGAAACUGUGAAGUAUAUCUUAAACCUGGGCACUUAAAAGAUAUAUGGAGUUAGUAGUGCAACCUGCUCGGUCUGAUGAGUCCGGCCUCGGACGAAACAGC [GGCCUC] | 1.742 ± 0.015 | 1.83 ± 0.11
5 | GCUGUCACCGAGAAACUGUGAAGUAUAUCUUAAACCUGGGCACUUAAAAGAUAUAUGGAGUUAGUAGUGCAACCUGCUCGGUCUGAUGAGUCCUGCGGGGGACGAAACAGC [UGCGGG] | 1.81 ± 0.045 | 1.92 ± 0.067
6 | GCUGUCACCGAGAAACUGUGAAGUAUAUCUUAAACCUGGGCACUUAAAAGAUAUAUGGAGUUAGUAGUGCAACCUGCUCGGUCUGAUGAGUCCGAUAUUGGACGAAACAGC [GAUAUU] | 1.61 ± 0.019 | 1.8 ± 0.13
7 | GCUGUCACCGAGAAACUGUGAAGUAUAUCUUAAACCUGGGCACUUAAAAGAUAUAUGGAGUUAGUAGUGCAACCUGCUCGGUCUGAUGAGUCCGCGGCGGGACGAAACAGC [GCGGCG] | 1.842 ± 0.0045 | 1.9 ± 0.057
8 | GCUGUCACCGAGAAACUGUGAAGUAUAUCUUAAACCUGGGCACUUAAAAGAUAUAUGGAGUUAGUAGUGCAACCUGCUCGGUCUGAUGAGUCCUCCUAAGGACGAAACAGC [UCCUAA] | 1.63 ± 0.077 | 1.79 ± 0.067
9 | GCUGUCACCGAGAAACUGUGAAGUAUAUCUUAAACCUGGGCACUUAAAAGAUAUAUGGAGUUAGUAGUGCAACCUGCUCGGUCUGAUGAGUCCAUUAACGGACGAAACAGC [AUUAAC] | 1.655 ± 0.015 | 1.76 ± 0.15
10 | GCUGUCACCGAGAAACUGUGAAGUAUAUCUUAAACCUGGGCACUUAAAAGAUAUAUGGAGUUAGUAGUGCAACCUGCUCGGUCUGAUGAGUCCGCUGAGGGACGAAACAGC [GCUGAG] | 1.5 ± 0.079 | 1.67 ± 0.069
11 | GCUGUCACCGAGAAACUGUGAAGUAUAUCUUAAACCUGGGCACUUAAAAGAUAUAUGGAGUUAGUAGUGCAACCUGCUCGGUCUGAUGAGUCCGCUCUGGGACGAAACAGC [GCUCUG] | 1.629 ± 0.0036 | 1.8 ± 0.11
12 | GCUGUCACCGAGAAACUGUGAAGUAUAUCUUAAACCUGGGCACUUAAAAGAUAUAUGGAGUUAGUAGUGCAACCUGCUCGGUCUGAUGAGUCCACUGUGGGACGAAACAGC [ACUGUG] | 1.6 ± 0.038 | 1.76 ± 0.11
13 | GCUGUCACCGAGAAACUGUGAAGUAUAUCUUAAACCUGGGCACUUAAAAGAUAUAUGGAGUUAGUAGUGCAACCUGCUCGGUCUGAUGAGUCCUCCUCUGGACGAAACAGC [UCCUCU] | 1.74 ± 0.06 | 1.87 ± 0.13
14 | GCUGUCACCGAGAAACUGUGAAGUAUAUCUUAAACCUGGGCACUUAAAAGAUAUAUGGAGUUAGUAGUGCAACCUGCUCGGUCUGAUGAGUCCAGGAUUGGACGAAACAGC [AGGAUU] | 1.49 ± 0.032 | 1.73 ± 0.12
15 | GCUGUCACCGAGAAACUGUGAAGUAUAUCUUAAACCUGGGCACUUAAAAGAUAUAUGGAGUUAGUAGUGCAACCUGCUCGGUCUGAUGAGUCCGGGGUCGGACGAAACAGC [GGGGUC] | 1.654 ± 0.0072 | 1.79 ± 0.12
16 | GCUGUCACCGAGAAACUGUGAAGUAUAUCUUAAACCUGGGCACUUAAAAGAUAUAUGGAGUUAGUAGUGCAACCUGCUCGGUCUGAUGAGUCCGUAGUCGGACGAAACAGC [GUAGUC] | 1.37 ± 0.12 | 1.55 ± 0.054
17 | GCUGUCACCGAGAAACUGUGAAGUAUAUCUUAAACCUGGGCACUUAAAAGAUAUAUGGAGUUAGUAGUGCAACCUGCUCGGUCUGAUGAGUCCGUCAUAGGACGAAACAGC [GUCAUA] | 1.57 ± 0.025 | 1.76 ± 0.14
18 | GCUGUCACCGAGAAACUGUGAAGUAUAUCUUAAACCUGGGCACUUAAAAGAUAUAUGGAGUUAGUAGUGCAACCUGCUCGGUCUGAUGAGUCCGUACCCGGACGAAACAGC [GUACCC] | 1.75 ± 0.058 | 1.88 ± 0.097
19 | GCUGUCACCGAGAAACUGUGAAGUAUAUCUUAAACCUGGGCACUUAAAAGAUAUAUGGAGUUAGUAGUGCAACCUGCUCGGUCUGAUGAGUCCAUCUGAGGACGAAACAGC [AUCUGA] | 1.56 ± 0.099 | 1.71 ± 0.079
20 | GCUGUCACCGAGAAACUGUGAAGUAUAUCUUAAACCUGGGCACUUAAAAGAUAUAUGGAGUUAGUAGUGCAACCUGCUCGGUCUGAUGAGUCCUGCAUAGGACGAAACAGC [UGCAUA] | 1.7 ± 0.027 | 1.84 ± 0.084
21 | GCUGUCACCGAGAAACUGUGAAGUAUAUCUUAAACCUGGGCACUUAAAAGAUAUAUGGAGUUAGUAGUGCAACCUGCUCGGUCUGAUGAGUCCCAAGAGGGACGAAACAGC [CAAGAG] | 1.6 ± 0.023 | 1.78 ± 0.14
22 | GCUGUCACCGAGAAACUGUGAAGUAUAUCUUAAACCUGGGCACUUAAAAGAUAUAUGGAGUUAGUAGUGCAACCUGCUCGGUCUGAUGAGUCCUCCUUGGGACGAAACAGC [UCCUUG] | 1.74 ± 0.036 | 1.86 ± 0.082
23 | GCUGUCACCGAGAAACUGUGAAGUAUAUCUUAAACCUGGGCACUUAAAAGAUAUAUGGAGUUAGUAGUGCAACCUGCUCGGUCUGAUGAGUCCGAUCGUGGACGAAACAGC [GAUCGU] | 1.65 ± 0.046 | 1.81 ± 0.087
24 | GCUGUCACCGAGAAACUGUGAAGUAUAUCUUAAACCUGGGCACUUAAAAGAUAUAUGGAGUUAGUAGUGCAACCUGCUCGGUCUGAUGAGUCCAGAUCGGGACGAAACAGC [AGAUCG] | 1.72 ± 0.051 | 1.88 ± 0.061
25 | GCUGUCACCGAGAAACUGUGAAGUAUAUCUUAAACCUGGGCACUUAAAAGAUAUAUGGAGUUAGUAGUGCAACCUGCUCGGUCUGAUGAGUCCCAGUUGGGACGAAACAGC [CAGUUG] | 1.76 ± 0.019 | 1.87 ± 0.11
26 | GCUGUCACCGAGAAACUGUGAAGUAUAUCUUAAACCUGGGCACUUAAAAGAUAUAUGGAGUUAGUAGUGCAACCUGCUCGGUCUGAUGAGUCCCCAGAUGGACGAAACAGC [CCAGAU] | 1.65 ± 0.025 | 1.81 ± 0.12
